The values below come from US10889844B2, “Methods of degrading or hydrolyzing a polysaccharide” (Novozymes A/S, priority 2010, dated 2021).

Holding throughout (format): biochemical
Data set [1] can be described thus: EfCBM33 boost of alpha-chitin degradation by chitinase EF0361. The conditions noted are these: 2.0 mg/ml alpha-chitin, 0.3 μM EF0361, 0.3 μM EfCBM33, 1.0 mM reduced glutathione. As to the method: (§1) For use in chitin degradation experiments, eight crystals were harvested from a 2 μL drop using a nylon loop and transferred to a 4 μL drop containing the crystallization liquor from the buffer reservoir. The crystals were mixed around in order to “rinse off” potential contaminants. After the first rinse, the crystals were transferred to a new 4 μL drop containing the crystallization liquor for a second rinsing cycle. Finally, all crystals were transferred to and dissolved in a 4 μL drop containing 20 mM Tris-HCl, pH 8.0. The resulting solution was diluted by adding it to a test tube containing 46 μL 20 mM Tris-HCl, pH 8.0. […] Soluble products in the supernatant of the reaction were analyzed by MALDI-TOF, using the same methods as those used for testing the activity of CBP21. Further, the ability of EfCBM33 to boost degradation of alpha-chitin was probed by conducting an experiment where 2.0 mg/ml alpha-chitin (shrimp shells) was incubated with 0.3 μM of the chitinase from Entreococcus feacalis (protein name (EF0361)) in the presence or absence of 0.3 μM EfCBM33 and 1.0 mM reductant (R: reduced glutathione) incubated at 37° C. with agitation at 900 rpm.

Data set [2] is described as follows: EfCBM33 (dissolved crystals) on beta-chitin, MALDI-TOF MS. The conditions noted are these: 2.0 mg/ml beta-chitin. As to the method:
as §1

Data set [3] is described as follows: Soluble products released from AVICEL by CBM33 proteins (MALDI-TOF MS, HPAEC).
Procedure: The main peaks are annotated with molecular weight and degree of polymerization (DP).
The DP of the oxidized cellooligosaccharides is indicated by n, where n=3 (the shortest labelled oxidized cellooligosaccharide has a DP of three (=n)). […] Peak annotation was performed by comparing the chromatogram with the chromatogram obtained for a chemically prepared mixture of oxidized cellooligosaccharides with lengths varying from DP1 to DP10.
The main peaks are annotated with molecular weight and degree of polymerization (DP). All annotated peaks are Na adducts of native cellooligosaccharides, oxidized cellooligosaccharides (denoted “ox”) or the sodium salts of oxidized cellooligosaccharides.
Products were analyzed after 20 hours of incubation in 20 mM ammonium acetate buffer pH 5.0, 1 mM MgCl2 at 50° C. and 900 rpm (vertical agitation).
Separation of native and oxidized cellooligosaccharides was achieved using a Dionex Bio-LC equipped with a CarboPack PA1, a column temperature of 30° C. and a flow of 0.25 ml/min, with starting conditions, i.e., 0.1 M NaOH. A stepwise linear gradient with increasing amounts of sodium acetate was applied, going from 0.1 M NaOH and 0.1 M sodium acetate in 10 minutes, then to 0.1 M NaOH and 0.3 M sodium acetate for 25 minutes then increasing to 0.1 M NaOH and 1.0 M sodium acetate at 30 minutes which was kept for 10 minutes. Column reconditioning was achieved by a one minute gradient to initial conditions and subsequent running at initial conditions for 14 minutes. Eluted oligosaccharides were monitored by PAD detection. Chromatograms were recorded and analysed using Chromeleon 7.0 Peak identification was achieved by a procedure including the following steps: oxidized cellooligosaccharides were separated using a Dionex Ultimate 3000 UHPLC system carrying a Hypercarb 150×2.1 mm column (Thermo Scientific) running a gradient of water/0.1% TFA and acetonitrile/0.1% TFA (from 20 to 80% acetonitrile) according to the method developed by Westphal et al., 2010, Journal of Chromatography A 1217: 689-695. Eluted peaks were manually fractioned, freeze-dried, re-dissolved in MilliQ water and identified using MALDI-TOF MS. Pure oxidized cellooligosaccharides with known identity were then analyzed using the HPEAC method described above in order to establish the identity of the oxidized cellooligosaccharides generated by CelS2 and E7.
Data set [4] can be described thus: Cellulase boosting properties of CelS2 at various pHs with monocomponent Cel7A. The conditions noted are these: CelS2 with Cel7A; data not shown. The source says:
When probing the cellulose boosting properties of CelS2 at various pHs using monocomponent Cel7A as the cellulose hydrolytic component, pH 5.5 came out as the optimal pH for activity. […] The most obvious reason for the decrease in cellulose hydrolysis at increasing pH is the pH stability and efficiency of Cel7A. […] CelS2 is a bacterial enzyme that originates from Streptomyces species that are known to grow optimally on cellulosic substrates in approximately neutral pH conditions (Kontro et al., 2005, Letters in Applied Microbiology 41: 32-38.).

The nature of data set [5]: Filter paper degradation by […] with CelS2 or E7 (FIG. 20), sugars by HPLC. As to the method: Reactions were run in 50 mM Bis-tris/HCl pH 6.5, 1 mM MgCl2, at 50° C. and 900 rpm (horizontal agitation). Control reactions containing the cellulosic substrate suspended in the same buffer as used for the enzyme assays gave no detectable signal for either glucose or cellobiose.
(§2) The mobile phase consisted of 5 mM sulfuric acid and the flow rate used was 1.0 ml/min. Eluted glucose and cellobiose were monitored by recording refractive index. Quantification was obtained by running glucose and cellobiose standards.
(§3) Assays performed to evaluate the function of E7 and CelS2 were set up using a variety of cellulosic substrates (AVICEL®, filter paper and steam exploded wood chips from poplar), at either pH 5.5 (20 mM sodium acetate buffer), 6.5 (20 mM Bis-Tris buffer) or 8.0 (20 mM Tris buffer) in reaction mixtures containing 1.0 mM MgCl2.

Data set [6] can be described thus: Filter paper degradation by HjCel7A with CelS2 over time (FIG. 26). The conditions noted are these: 40 μg/ml CelS2, 5 μg/ml HjCel7A, pH 5.5, 50° C. As to the method: By far the major products of these reactions are cellooligosaccharides released by the cellulases (whose activity is boosted by CelS2). In the case of HjCel7A, the main product is cellobiose and formation of this product is shown. RG, indicates the presence of a reductant, in this case reduced glutathione. […] The reactions were run at 50° C.

Data set [7] can be described thus: Degradation of steam exploded saw dust from poplar by […] with CelS2 (FIG. 24). The conditions noted are these: 1.0 μM CelS2, CELLUCLAST, 1.0 mM reduced glutathione, pH 5.5, 20 hours. As to the method:
as §3

A short description of data set [8]: Filter paper degradation by Cel7A with CelS2 (FIG. 21), cellobiose by HPLC. The method, then: These reactions were conducted in 50 mM sodium acetate pH 5.5, 1 mM MgCl2, at 50° C., 900 rpm (horizontal incubation). Only the cellobiose concentration was quantified as the amount of glucose was minor (less than 5% of the total sugar). Control reactions containing the cellulosic substrate suspended in the same buffer as used for the enzyme assays gave no detectable signal for either glucose or cellobiose.
as §2, §3

A short description of data set [9]: Soluble oxidized products from other cellulosic variants by CelS2 (MALDI-TOF MS). The conditions noted are these: results not shown. The source says: Finally, other cellulosic variants (filter paper and steam exploded sawdust from poplar) were also probed as substrates for CelS2. […] This is most likely due to the high DP of the cellulose in these substrates; cleavages on the crystalline surfaces will not easily lead to release of soluble (=short) cellooligosaccharides when the overall DP is very high. AVICEL® is special in that it is a form of microcrystalline cellulose that has a very low DP (˜60-100; Wallis et al., 1992, Carbohydrate Polymers 17: 103-110 and Mormann and U, 2002, Carbohydrate Polymers 50: 349-353) compared to that of the other substrates tested.

Data set [10] can be described thus: Time course of filter paper cellulose degradation by […] with CelS2 (FIG. 25). The method, then:
In reactions where no CelS2 was present, 40 μg/ml purified BSA was added in order to maintain an identical protein load. […] Data are mean+/−SD (N=3); error bars indicate SD.

“Also recorded” adds a separate entry of the source.

B1: EfCBM33: family 33 CBM from Enterococcus faecalis (Uniprot ID:Q838S1; SEQ ID NO: 5) (protein, listed as Enterococcus faecalis)
chain: MKKSLLTIVLAFSFVLGGAALAPTVSEAHGYVASPGSRAFFGSSAGGNLNTNVGRAQWEPQSIEAPKNTFITGKLASAGVSGFEPLDEQTATRWHKTNITTGPLDITWNLTAQHRTASWDYYITKNGWNPNQPLDIKNFDKIASIDGKQEVPNKVVKQTINIPTDRKGYHVIYAVWGIGDTVNAFYQAIDVNIQ
Consider B1, for which the “boost of chitinase activity on alpha-chitin” value in [1] is on record as “A boost of the chitinase activity is clearly observed”. The “oxidohydrolytic activity on beta-chitin (soluble products)” value in data set [2] is recorded as “clearly showing the formation of oxidized products; also recorded: the product spectrum is dominated by even-numbered oxidized chitooligosaccharides”.

B2: CelS2: multidomain CBM33 with C-terminal CBM2 from Streptomyces coelicolor A3(2) (SEQ ID NO: 7) (protein)
chain: MVRRTRLLTLAAVLATLLGSLGVTLLLGQGRAEAHGVAMMPGSRTYLCQLDAKTGTGALDPTNPACQAALDQSGATALYNWFAVLDSNAGGRGAGYVPDGTLCSAGDRSPYDFSAYNAARSDWPRTHLTSGATIPVEYSNWAAHPGDFRVYLTKPGWSPTSELGWDDLELIQTVTNPPQQGSPGTDGGHYYWDLALPSGRSGDALIFMQWVRSDSQENFFSCSDVVFDGGNGEVTGIRGSGSTPDPDPTPTPTDPTTPPTHTGSCMAVYSVENSWSGGFQGSVEVMNHGTEPLNGWAVQWQPGGGTTLGGVWNGSLTSGSDGTVTVRNVDHNRVVPPDGSVTFGFTATSTGNDFPVDSIGCVAP
modifications: Streptomyces coelicolor
Take B2: the “CelS2 activity at pH 8.0” value in data set [3] (AVICEL, FIG. 19) is recorded as “active”. Besides, in data set [3] (with external electron donor (ascorbic acid or reduced glutathione)), the “release of soluble native/oxidized cellooligosaccharides from AVICEL” value is reported as “soluble oligomeric products were observed”. In data set [4], the “activity at pH 6.5” value is “Less activity”. Further, the “activity at pH 8.0” value in data set [4] was “no activity could be detected”. In addition, the “optimal pH for activity” value in [4] was found to be 5.5. The “increase of glucose yield versus CELLUCLAST only” value in data set [5] (no external electron donor, 24 hours) was roughly 3.0 fold; in data set [5] (no external electron donor, 120 hours), roughly 9 fold; in [5] (with external electron donor (1 mM reduced glutathione), 24 hours), roughly 5 fold; in [5] (with external electron donor (1 mM reduced glutathione), 120 hours), roughly 11 fold. Besides, the “effect on Cel7A activity (cellobiose formation)” value in data set [6] is “boosts the activity of the cellulase, Cel7A; also recorded: prolongs the activity of Cel7A”. Moreover, the “cellulase boosting effect (cellobiose release)” value in data set [7] was roughly 2 fold. Besides, the “improvement of Cel7A activity (cellobiose yield)” value in data set [8] (absence of external electron donor, 18 hours) was determined as 5.5 fold; in data set [8] (absence of external electron donor, 40 hours), 7.3 fold; in data set [8] (presence of external electron donor, 18 hours), 6.7 fold; in data set [8] (presence of external electron donor, 40 hours) it was 9.8 fold. The soluble oxidized cellooligosaccharides result in [9] is reported as “Soluble oxidized cellooligosaccharides were not observed”. In addition, the “effect on CELLUCLAST (CC) production of soluble glucose over time” value in data set [10] (10 mg/ml filter paper, 0.8 μg/ml CC, pH 5.5) is “production of soluble glucose continues”. Further, the “Glc or Glc2 released without cellulase” value in data set [10] (reactions with only CelS2) was “did not yield detectable amounts of Glc or Glc2”.
